Measurements: patent publication US20180142030A1 (Bristol-Myers Squibb, published 2018)

B1: 5G7 (parental) (antibody, V domains shown)
VH: EVLLQQSGPELVKPGASVKIPCKASGYKFTDYNMDWVKQSHGKSLEWIGDINPKNGGTIYNLKFKGKATLTVDMSSSTAYMELRSLTSEDTAVYYCVRRMDYWGQGTSVTVSS
VL: DIQMTQTTSSLSASLGDRVTISCRASQDISNYLNWYQQKPDGTVKLLIYYISRLHSGVPSRFRGSGSGTDFSLTISNLEQEDIATYFCQQGNTLPYTFGGGTNLEIK
notes: Mouse variable domains; also called 1802.3583.5G7.F12.G3; mAb 5G7
B2: 12D6-03 (antibody, human IgG1, kappa, V domains shown)
VH: QVQLVQSGAEVKKPGASVKVSCKASGYTFTGYNMNWVRQAPGQGLEWMGNIDPYYGNTNYNQKFKGRVTMTTDTSTSTAYMELRSLRSDDTAVYYCARLGLQLYAMDYWGQGTTVTVSS
VL: DIVMTQTPLSLPVTPGEPASISCRSSQSLVHSNGNTYLHWYLQKPGQSPQLLIYKLTNRFFGVPDRFSGSGSGTDFTLKISRVEAEDVGVYYCSQSIHVPWTFGGGTKVEIKR
notes: Humanized
B3: 8E8-62 (antibody, human IgG1, kappa, V domains shown)
VH: QVQFVQSGAEVKKPGSSVKVSCKASGYTFTSYWMQWVRQAPGQGLEWMGTIYPGDGDSRYNQKFKGKALLTADKSTSTAYMELSSLRSEDTAVYYCARFSLYEGYPYYFDYWGQGTTVTVSS
VL: DIVMTQSPLSLPVTPGEPASISCRSSQSLVHRNGNTYLHWYLQKPGQSPQLLIYRVSNRFSGVPDRFSGSGSGTDFTLKISRVEAEDVGVYYCSQSTHFPYTFGGGTKVEIKR
notes: Humanized; IgG1f
B4: 19G3-11 (antibody, human IgG1, kappa, V domains shown)
VH: EVQLVESGGGLVKPGGSLRLSCAASGFTFSSYAMSWVRQAPGKGLEWVSEISGGGSYTYYPDTVTGRFTISRDNAKNSLYLQMNSLRAEDTAVYYCASRAYWGQGTLVTVSS
VL: DIVMTQTPLSLPVTPGEPASISCRSSQSIVHSNGNTYFEWYLQKPGQSPQLLIYKVSNRFSGVPDRFSGSGSGTDFTLKISRVEAEDVGVYYCFQGSHVPYTFGGGTKVEIKR
notes: Humanized; IgG1f
B5: 12D6-23 (antibody, human IgG1, kappa, V domains shown)
VH: QVQLVQSGAEVKKPGASVKVSCKASGYTFTGYNMNWVRQAPGQGLEWMGNIDPYYGNTNYNQKFKGRVTMTTDTSTSTAYMELRSLRSDDTAVYYCARLGLQLYALDYWGQGTTVTVSS
VL: DIVMTQTPLSLPVTPGEPASISCRSSQSLVHSNGNTYLHWYLQKPGQSPQLLIYKLTNRFFGVPDRFSGSGSGTDFTLKISRVEAEDVGVYYCSQSIHVPWTFGGGTKVEIKR
notes: Humanized; IgG1f
B6: 12D6-24 (antibody, human IgG1, kappa)
heavy: not shown
light: DIVMTQTPLSLPVTPGEPASISCRSSQSLVHSNANTYLHWYLQKPGQSPQLLIYKLTNRFFGVPDRFSGSGSGTDFTLKISRVEAEDVGVYYCSQSIHVPWTFGGGTKVEIKRTVAAPSVFIFPPSDEQLKSGTASVVCLLNNFYPREAKVQWKVDNALQSGNSQESVTEQDSKDSTYSLSSTLTLSKADYEKHKVYACEVTHQGLSSPVTKSFNRGEC
notes: Humanized; IgG1f; also called 12D6-24 IgG1f; mAb 12D6-24 human IgG1f (control)
B7: 8E8-56 (antibody, human IgG1, kappa, V domains shown)
VH: QVQFVQSGAEVKKPGSSVKVSCKASGYTFTSYWMQWVRQAPGQGLEWMGTIYPGDGDSRYNQKFKGKALLTADKSTSTAYMELSSLRSEDTAVYYCARFSLYDGYPYYFDYWGQGTTVTVSS
VL: DIVMTQSPLSLPVTPGEPASISCRSSQSLVHRNGNTYLHWYLQKPGQSPQLLIYRVSNRFSGVPDRFSGSGSGTDFTLKISRVEAEDVGVYYCSQSTHFPYTFGGGTKVEIKR
notes: Humanized; IgG1f
B8: 19G3-23 (antibody, human IgG1, kappa, name in Kabat numbering, V domains shown)
VH: EVQLVESGGGLVKPGGSLRLSCAASGFTFSSYAMSWVRQAPGKGLEWVSEISGGGSYTYYPDTVTGRFTISRDNAKNSLYLQMNSLRAEDTAVYYCASRAYWGQGTLVTVSS
VL: DIVMTQTPLSLPVTPGEPASISCRSSQSIVHSNANTYFEWYLQKPGQSPQLLIYKVSNRFSGVPDRFSGSGSGTDFTLKISRVEAEDVGVYYCFQGSHVPYTFGGGTKVEIKR
notes: Heavy chain inferred from the identical VH description (VH3-21 S94R) of 19G3-11; Light chain is the VKII O11 CDR graft of 19G3-11 with G29A
B9: 12D6-22 (antibody, human IgG1, kappa, V domains shown)
VH: QVQLVQSGAEVKKPGASVKVSCKASGYTFTGYNMNWVRQAPGQGLEWMGNIDPYYGNTNYNQKFKGRVTMTTDTSTSTAYMELRSLRSDDTAVYYCARLGLQLYAMDYWGQGTTVTVSS
VL: DIVMTQTPLSLPVTPGEPASISCRSSQSLVHSNANTYLHWYLQKPGQSPQLLIYKLTNRFFGVPDRFSGSGSGTDFTLKISRVEAEDVGVYYCSQSIHVPWTFGGGTKVEIKR
notes: Humanized; IgG1f
B10: 8E8-66 (antibody, human IgG1, kappa, V domains shown)
VH: QVQFVQSGAEVKKPGSSVKVSCKASGYTFTSYWMQWVRQAPGQGLEWMGTIYPGDGDSRYNQKFKGKALLTADKSTSTAYMELSSLRSEDTAVYYCARFSLYDGYPYYFDYWGQGTTVTVSS
VL: DIVMTQSPLSLPVTPGEPASISCRSSQSLVHRNANTYLHWYLQKPGQSPQLLIYRVSNRFSGVPDRFSGSGSGTDFTLKISRVEAEDVGVYYCSQSTHFPYTFGGGTKVEIKR
B11: 19G3-22 (antibody, human IgG1, kappa, V domains shown)
VH: EVQLVESGGGLVKPGGSLRLSCAASGFTFSSYAMSWVRQAPGKGLEWVSEISGGGSYTYYPDTVTGRFTISRDNAKNSLYLQMNSLRAEDTAVYYCASRAYWGQGTLVTVSS
VL: DIVMTQTPLSLPVTPGEPASISCRSSQSIVHSQGNTYFEWYLQKPGQSPQLLIYKVSNRFSGVPDRFSGSGSGTDFTLKISRVEAEDVGVYYCFQGSHVPYTFGGGTKVEIKR
notes: Humanized; IgG1f
B12: 5F11-17 (antibody, human IgG1, kappa)
heavy: not shown
light: DIVMTQSPDSLAVSLGERATINCRASKNVDSYGNSFMHWYQQKPGQPPKLLIYRASNLESGVPDRFSGSGSGTDFTLTISSLQAEDVAVYYCQQSNEDPLTFGQGTKLEIKRTVAAPSVFIFPPSDEQLKSGTASVVCLLNNFYPREAKVQWKVDNALQSGNSQESVTEQDSKDSTYSLSSTLTLSKADYEKHKVYACEVTHQGLSSPVTKSFNRGEC
notes: Humanized; IgG1f
B13: 5F11-45 (antibody, human IgG1, kappa)
heavy: not shown
light: DIVLTQSPDSLAVSLGERATINCRASKNVDSYGNSFMHWYQQKPGQPPKLLIYRASNLESGVPDRFSGSGSGTDFTLTISSLQAEDVAVYYCQQSNEDPLTFGQGTKLEIKRTVAAPSVFIFPPSDEQLKSGTASVVCLLNNFYPREAKVQWKVDNALQSGNSQESVTEQDSKDSTYSLSSTLTLSKADYEKHKVYACEVTHQGLSSPVTKSFNRGEC
notes: Humanized; IgG1f
B14: 5F11-23 (antibody, human IgG1, kappa)
heavy: not shown
light: DIVLTQSPDSLAVSLGERATISCRASKNVDSYGNSFMHWYQQKPGQPPKLLIYRASNLESGVPDRFSGSGSGTDFTLTISSLQAEDVAVYYCQQSNEDPLTFGQGTKLEIKRTVAAPSVFIFPPSDEQLKSGTASVVCLLNNFYPREAKVQWKVDNALQSGNSQESVTEQDSKDSTYSLSSTLTLSKADYEKHKVYACEVTHQGLSSPVTKSFNRGEC
notes: Humanized; IgG1f
B15: 12D6 (parental) (antibody, V domains shown)
VH: EVQLQQSGPELEKPGASVKMSCKASGYSFTGYNMNWVKQSNGKSLEWIGNIDPYYGNTNYNQKFKGKATLTVDKSSSTAYLQLKSLTSEDSAVYYCARLGLQLYAMDYWGQGTSVTVSS
VL: DVVMTQTPLSLPVSLGDQASISCRSSQSLVHSNGNTYLHWYLQKPGQSPNLLIYKLTNRFFGVPDRFSGSGSGTDFTLKISRVEAEDLGVYFCSQSIHVPWTFGGGTKLEIK
notes: Mouse variable domains; also called 1802.3716.12D6.B1.E3; mAb 12D6
B16: 8E8 (parental) (antibody, V domains shown)
VH: QVQFQQSGAELARPGASVKLSCKASGYTFTSYWMQWVKQRPGQGLEWIGTIYPGDGDSRYNQKFKGKALLTADKSSSIAYMQLNSLASEDSAVYFCARFSLYDGYPYYFDYWGQGTTLTVSS
VL: DVVMTQTPLSLPVSLGDQASISCRSSQSLVHRNGNTYLHWYLQKPGQSPKLLIYRVSNRFSGVPDRFSGSGSGTDFTLKISRVEAEDLGIYFCSQSTHFPYTFGGGTKLEIK
notes: Mouse variable domains; also called 1802.3583.8E8.C10.G2; mAb 8E8
B17: 5G7-25 (antibody, human IgG1, kappa, V domains shown)
VH: QVQLVQSGAEVKKPGASVKVSCKASGYTFTDYNMDWVRQAPGQGLEWMGDINPKNAGTIYNLKFKGRVTLTVDTSTSTAYMELRSLRSDDTAVYYCVRRMDYWGQGTTVTVSS
VL: DIQMTQSPSSLSASVGDRVTITCRASQDISNYLNWYQQKPGKVPKLLIYYISRLHSGVPSRFSGSGSGTDFTLTISSLQPEDVATYYCQQGNTLPYTFGGGTKVEIKR
notes: Humanized; IgG1f
B18: 5G7-22 (antibody, human IgG1, kappa, V domains shown)
VH: QVQLVQSGAEVKKPGASVKVSCKASGYTFTDYNMDWVRQAPGQGLEWMGDINPKNGGTIYNLKFKGRVTLTTDTSTSTAYMELRSLRSDDTAVYYCVRRMDYWGQGTTVTVSS
VL: DIQMTQSPSSLSASVGDRVTITCRASQDISNYLNWYQQKPGKVPKLLIYYISRLHSGVPSRFSGSGSGTDFTLTISSLQPEDVATYYCQQGNTLPYTFGGGTKVEIKR
notes: Humanized; IgG1f
B19: 5G7-28 (antibody, human IgG1, kappa, name in Kabat numbering, V domains shown)
VH: QVQLVQSGAEVKKPGASVKVSCKASGYTFTDYNMDWVRQAPGQGLEWMGDINPKNAGTIYNLKFKGRVTLTVDTSTSTAYMELRSLRSDDTAVYYCVRRLDYWGQGTTVTVSS
VL: DIQMTQSPSSLSASVGDRVTITCRASQDISNYLNWYQQKPGKVPKLLIYYISRLHSGVPSRFSGSGSGTDFTLTISSLQPEDVATYYCQQGNTLPYTFGGGTKVEIKR
B20: 19G3 (parental) (antibody, V domains shown)
VH: EVQLVESGGGLVKPGGSLKLSCAASGFTFSSYAMSWVRQSPEKRLEWVAEISGGGSYTYYPDTVTGRFTISRDNAKNTLYLEMSSLRSEDTAMYYCASRAYWGQGTLVTVSA
VL: DVLMTQTPLSLPVSLGDQASISCRSSQSIVHSNGNTYFEWYLQKPGQSPKLLIYKVSNRFSGVPDRFSGSGSGTDFTLKISRVEAEDLGVYYCFQGSHVPYTFGGGTKLEIK
notes: Mouse variable domains; also called 1802.3582.19G3.F10.E1; mAb 19G3

These binders were tested against T1, recombinant human CD40 monomer (human, UniProt P25942 21-193) (assay: BLI (Octet RED); antibody supernatant captured on protein A sensors, huCD40-monomer in solution).
T1 construct: also called huCD40-monomer; soluble human CD40
From the text: The closest matching human germline region sequence was selected for each mouse variable domain, and these human framework regions were used to replace murine frameworks in the “CDR graft” versions of the antibodies. Additional amino acid substitutions, such as framework back-mutations, were then made as necessary to restore the binding affinity of the humanized antibody. Further amino acid substitutions were made to eliminate sequence liabilities. The sequence relationships between the various forms of the antibodies of the present invention are provided at Table 6. The binding of various agonistic anti-huCD40 antibodies to soluble human CD40 was determined by Biolayer Interferometry (BLI) analysis using a Fortebio Octet RED (Rapid system—Extended Detection) label-free interaction analysis instrument. All studies were performed in 10 mM NaₓPO₄, 130 mM NaCl, 0.05% Surfactant P20 (pH 7.1) at 25° C. Briefly, anti-huCD40 antibody supernatants (diluted to 10 μg/ml or captured undiluted if supernatant concentration was less than 10 μg/ml) were captured on protein A coated biosensors (Pall Fortebio #18-5010) using a loading time of 90 s and shake speed of 1000 rpm. Supernatants were first screened for binding to 1 μM recombinant human CD40 monomer (huCD40-monomer) using 180 s association and dissociation times, at 1000 rpm, with two 15 s conditioning steps using 10 mM glycine pH 1.5 in between binding cycles.

T1 sequence (P25942 21-193 limits assumed): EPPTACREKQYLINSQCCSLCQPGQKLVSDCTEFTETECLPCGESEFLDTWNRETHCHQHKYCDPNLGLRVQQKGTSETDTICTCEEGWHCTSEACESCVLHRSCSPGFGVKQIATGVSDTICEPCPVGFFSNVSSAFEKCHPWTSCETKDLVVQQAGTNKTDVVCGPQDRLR

Binder	Kd
B1	89 nM
B2	4.8 nM
B3	31 nM
B4	850 nM
B5	4.3 nM
B6	5.6 nM
B7	82 nM
B8	1300 nM
B9	3.6 nM
B10	82 nM
B11	99 nM
B12	8.4 nM
B13	12.3 nM
B14	4.9 nM
B15	3.6 nM
B16	85 nM
B17	69 nM
B18	50 nM
B19	230 nM
B20	870 nM
